Among the data in the supplement of paper PMC12042874 are amyloid nucleation score values, retold here.

The nature of the data set: amyloid nucleation score (Sup35N fusion, yeast selection) (log enrichment); library NNK1; higher = more nucleation; inactive = no reads after selection. The procedure, abridged: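 Sup35N fusions to peptides of 20 random codons were expressed in psi-negative yeast, induced 24 hours with 100 μM copper sulfate, and grown 7 days at 30°C on medium lacking adenine and uracil. Input and output plasmid inserts were sequenced by Illumina. The nucleation score is the DiMSum log enrichment of output over input reads, centred on the mode score of non-aggregating sequences. Sequences with under 100 input reads were excluded.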

± gives the uncertainty stated by the source.

Turning to FSVNP, the amyloid nucleation score was found to be 1.22 ± 0.69.
The value for GEGSCGVSLSSMYLQWGARV was -0.663 ± 0.83.
Turning to LVPPVFRP, the amyloid nucleation score was -1.11 ± 1.1.
The value for SWPMTIQYGDSIWNWKMSVM was 0.388 ± 0.58; that for RNFCSSEGPSRHERLCNTKR was -0.542 ± 0.68; that for IGVYSKNAQKGIRRDWCLWN was 1.33 ± 0.62.
Substance RLGCGSM displayed an amyloid nucleation score of 0.769 ± 0.45.
As for YVGRNLWK, the figure is 0.402 ± 0.47.
As for EFIFFCFVLCYANVMLLWN, the figure is 0.601 ± 0.42; as for VCRQMYVLDCYS, “inactive”; as for NHSNTCEWRSCRP, 0.551 ± 0.61.
For the substance AGFQFSIDYR, the amyloid nucleation score amounted to 0.259 ± 0.51.
Substance TSELFYGTCGKGCPERVGGQ came in with an amyloid nucleation score of -0.266 ± 1.6.
As to RVYRYLPYRYERCLDL, the amyloid nucleation score was -0.504 ± 0.93.
Substance YTRRVTNDVNNFGTFTRMSS had an amyloid nucleation score of 1.02 ± 0.27.
The substance NFKVYPSGCKEECAYVLLSL gave an amyloid nucleation score of 3.87 ± 0.079.
As for NGEIVYASWTCDPSIGRRGK, the figure is 0.207 ± 0.97; as for IVTALEGYRDYFSEPCIFFM, -0.176 ± 0.32; as for DNMYIFEN, -0.352 ± 0.46.
ILVYERTYFRNLQWIIRWFS gave an amyloid nucleation score of -0.356 ± 0.22.
In turn, SCRRYSYKCSVL had an amyloid nucleation score of -0.16 ± 1.4.
On to VCNWVSLGVALHRALEQLGI, for which the amyloid nucleation score is -1.32 ± 0.92.
Turning to RFIYE, the amyloid nucleation score is -0.543 ± 0.82.
As for VHFEGFWAFTLVDLT, the figure is 0.232 ± 0.48; as for YVFRPLVERDRSLMKLVQQL, “inactive”.
The value for RFEWLCGVFSGALPKGAWLK was -0.144 ± 0.37.
As for VNQDAGDMKSVRKRAMTRLC, the figure is 1.06 ± 0.56; as for IRVFLLSCQTEKLGSVGVRS, -0.007 ± 0.41; as for LYRFNF, 0.223 ± 0.45.
With MVMMFTTDSMQAN, the amyloid nucleation score was 0.906 ± 0.52.
As to GAIIFLSCGWSKCFCTLWVI, the amyloid nucleation score is -0.381 ± 0.38.
The value for WLVCNEGSIMDLASGLGLIR was 0.561 ± 0.66; that for SRVSLFGWSGFKFTSRDSWL was 3.51 ± 0.18.
Substance RVFSSFGFMKRRPVWTVWIT returned an amyloid nucleation score of -0.324 ± 0.81.
The value for SQCSSLIHAIEMDRFVF was 0.276 ± 0.23; that for IWLSQYDHGNCVTYSQANYM was 0.412 ± 0.85.
The value for GDKCLVTYCYLLGDGEGQQS was -0.05 ± 0.43.
CLSRKSWFWHGRWESVSCHP had an amyloid nucleation score of -0.018 ± 0.53.
As for CSRNTSVA, the figure is 1.01 ± 0.57; as for VPCGKLIISGGVQNCIYYWE, 7.306 ± 0.056; as for EMAFSSINPRGHSIQGSASG, -0.282 ± 1.2.
As for TCNHYNRVVFQSNVIYLIHV, the figure is 2.77 ± 0.15; as for ILELYYYASRFLN, 0.45 ± 0.57; as for WVIVRYRNFCVCGRPSKDIG, 0.263 ± 0.32.
Regarding RVCKFKFYQFSSSKC, the amyloid nucleation score was 3.75 ± 0.067.
As for LVWRFS, the figure is 1.56 ± 0.28.
The value for YRNEESVSKSHGCHDMSWFA was 0.505 ± 0.54.
The value for SGAVIYANKFYVISCHNWSY was 7.478 ± 0.057.
Substance DNLSIWGL came in with an amyloid nucleation score of -0.629 ± 0.89.
The substance CNICNPI yielded an amyloid nucleation score of -0.585 ± 1.6.
Consider RSLRVA, for which the amyloid nucleation score is -0.214 ± 1.2.
As for MAICSGMTSWAVLLEVWN, the figure is 0.504 ± 0.57; as for QFYKGRNSFNERSSSNVLRY, “inactive”.
The value for LGTSEKGNRKNR was “inactive”.
Consider WFYPWVLVWTLSCCVSRHKG, for which the amyloid nucleation score stood at 4.35 ± 0.14.
In turn, RSSVVWLWSHYC gave an amyloid nucleation score of 0.588 ± 0.56.
SSSHDSIVFVRRLPHYCRGF yielded an amyloid nucleation score of 0.323 ± 0.43.
YNFVSCLVYRK yielded an amyloid nucleation score of 6.9 ± 0.071.
Regarding WLSPQG, the amyloid nucleation score is 0.453 ± 0.62.
As for ITMGTGCSAGEWFMVYMMC, the figure is 2.15 ± 0.2.
The value for YWVYSSRGCA was “inactive”; that for GMYLFECCYMGRRFSSWVGN was 0.055 ± 0.47.
As for VSCSDSMAFPSKSCF, the figure is 0.712 ± 0.34; as for ISRWMSVDLCLPKLATGTVS, -0.083 ± 0.4; as for VFSLYSTQKLSRRVIGMLGL, 0.725 ± 0.81.
As for VKVIVIHAAC, the amyloid nucleation score is -0.256 ± 0.31.
Substance QTFSNPFFVLYLSNRLIPKV came in with an amyloid nucleation score of 1.82 ± 0.29.
In the case of VAFNICSENRLVNFR, the amyloid nucleation score is -0.577 ± 0.4.
The value for LGVMMFRCVL was 3.79 ± 0.16; that for VSLYM was 0.924 ± 0.97; that for CSYPHIDIAPRSACPTWTQD was 0.432 ± 0.72.
As for VGFYCHLCGYLVWGRWKHSA, the figure is 1.18 ± 0.97; as for MGRLRARRSLVLVA, “inactive”; as for YWCMLARSLDDEGLFWRTGG, -0.38 ± 0.33.
The value for HEGRS was -1.25 ± 1.2; that for VILSYCLIFLK was -0.647 ± 0.48.
Substance EVMVSAGVTIACSPVVIRFR had an amyloid nucleation score of 1.47 ± 0.54.
The substance GDLGCVYSLFRSLFSSFTRS displayed an amyloid nucleation score of 0.111 ± 0.35.
As for VKVRFIRIYYFFCNSKDFRG, the figure is -0.308 ± 0.31; as for YLKINTTYGCDI, 1.93 ± 0.34.
As for LINDRPPSSAMERRNVATSS, the figure is 0.096 ± 0.57.
As for NLRQVCNSAFVVGSVIFFWV, the figure is -0.318 ± 0.69.
The substance VLIFWWIMKGRFWVMCSAGY gave an amyloid nucleation score of 0.621 ± 0.89.
As to IFYSLFEDTYGGYVLNTAYL, the amyloid nucleation score result was “inactive”.
As for WLVVHSQLFSSCNCLKNTVP, the figure is 0.968 ± 0.35; as for VKVCSSSMRFNVL, 0.689 ± 0.58; as for PMVRMQYDPYIKTMCVVWMR, -0.195 ± 1.2.
In the case of LALMFFNLKSCIFMSMWLFT, the amyloid nucleation score came to 1.65 ± 0.57.
As for CLSRLLVLKYLSTWSKKWVW, the figure is -0.115 ± 0.25; as for EYVHLNQVNDAGGVDSGTLS, 0.823 ± 0.28.
The value for LLVRNMSNVVPLMFSIPSNV was 0.458 ± 0.65; that for CVYGGIFYRTGYLYFEVYFY was 0.134 ± 0.31.
The value for YSEWRSSHNRFMSRPLSTPR was -0.992 ± 0.55.
As for IVLRFIRILISINLSQEH, the amyloid nucleation score was -1.14 ± 0.76.
The value for YVYDSVAVHGGKTLEGEGYG was 0.035 ± 0.38; that for WWATWRLLCIDNTACWADRW was -0.177 ± 0.53; that for WQSFGVSGRLPYRQWSD was “inactive”.
Substance LSRLRLSAAGSADRESLVVS displayed an amyloid nucleation score of 0.538 ± 0.5.
On to YCDSWSVSFLICRSPFQNYM, for which the amyloid nucleation score is -1.12 ± 0.56.
The value for FSSQYQMSAGVF was -0.013 ± 0.56; that for FVSNGSYVGIS was -0.42 ± 0.51.
The value for HWSMCRTGFWSLYKMDVTQT was 0.833 ± 0.7; that for ILFCYLYFMLNNFT was 1.07 ± 0.14; that for WFASYCISFN was 2.27 ± 0.21.
As for LRYFDLVATNHDNMIYDQYL, the figure is -0.177 ± 0.68; as for ISSTGKIFGFFPLCSYMN, 0.041 ± 0.47.
With CELRTD, the amyloid nucleation score entry is “inactive”.
The value for DYVPYEKAHRARMYCPTHQG was 0.409 ± 0.35; that for FPDYQVLLQCYLN was 0.418 ± 0.38.
SLNSMVSLTWVRRDYTIWKR displayed an amyloid nucleation score of 0.001 ± 0.23.
Substance NHFLRSNNKYLSWGKTYIAP displayed an amyloid nucleation score of -0.846 ± 2.4.
As for VMLGGSPHMPIAN, the figure is 0.047 ± 0.41.
The substance TVSDHPSFFCVYCADSSVGM returned an amyloid nucleation score of 7.439 ± 0.073.
In turn, RCYSVRCTFQVDYARIHANE yielded an amyloid nucleation score of 1.99 ± 0.17.
The value for WICVGYIVTTCSPELGEYRQ was “inactive”.
The value for FKVPVYGWLWETTVVSADTS was -0.131 ± 0.37; that for CWKLETYTSTDSQVGQANLK was -1.28 ± 0.96.
As for PISSGNCSTRLGSFSSWYSV, the figure is -0.485 ± 0.68.
YLPYVSLQSVHWIMVGWLN: the amyloid nucleation score is -0.163 ± 0.8.
Substance VFHNYFLRTYTNRRARSVSI had an amyloid nucleation score of 2.86 ± 0.14.
As for VLLSQIVGIWAL, the figure is -0.642 ± 0.67; as for YVGADMELHSRMVTDTYFAS, -0.707 ± 1.1.
As for SLLDMIYVIDTTTKNCILSK, the figure is 0.983 ± 0.35; as for FRRLRMLLILASKFGVD, -0.392 ± 0.34; as for GLLSRNLVLRGLNSGNWPFG, “inactive”.
The value for PLLVYIFNFHCYHLVNAMTV was 2.2 ± 0.32.
As to SFESVFRHCRVRCCYGKIRQ, the amyloid nucleation score worked out at 0.685 ± 0.31.
The value for RLSSSCSSAEDWYRKGHLLK was -0.063 ± 0.4; that for MGFVGPENAKDYCSRGV was 0.357 ± 0.5.
The value for FCQLVIFY was 2.8 ± 0.18; that for LFIDVSR was -0.021 ± 1.6; that for SDDHVTVYNRDARRSRSCCL was “inactive”.
Turning to LYEAMPKTLAGIWSTPNMCV, the amyloid nucleation score is -0.507 ± 0.93.
RMLDY came in with an amyloid nucleation score of 0.318 ± 1.2.
The value for TFKYFDSLTLPDLYIVVHGS was 0.037 ± 0.2; that for TVYYDSIRSMYGYGGGVASR was -0.344 ± 0.49.
The value for ATQLAFSMILSAAVYFLKVV was -1.33 ± 1.7.
As for IGSVDALKVVDVAMCVPT, the figure is 2.34 ± 0.54; as for MACRSPEGLEYMKN, 0.209 ± 0.46; as for GYIGICGNKYYFPVDRYRAC, 1.28 ± 0.57.
